Data published in patent CN110343173A (INST MICROBIOLOGY CAS, dated 2019).

What was measured:
YFV China病毒 (E蛋白, 病毒颗粒上) = YFV China病毒 (E蛋白, 病毒颗粒上) (yellow fever virus, strain CNYF01/2016 …, UniProt Q1X881 286-683); assay: cell-based or functional assay
[1] = target: YFV CNYF01/2016 (YFV-China) 毒株膜蛋白E蛋白胞外区, C端6xHis标签, 大肠杆菌表达复性 (yellow fever virus, strain CNYF01/2016 …, UniProt Q1X881 286-683)
YFV CNYF01/2016 (YFV-China) 毒株膜蛋白E蛋白胞外区, C端6xHis标签, 大肠杆菌表达复性, sequence (Q1X881 286-683, tags left off): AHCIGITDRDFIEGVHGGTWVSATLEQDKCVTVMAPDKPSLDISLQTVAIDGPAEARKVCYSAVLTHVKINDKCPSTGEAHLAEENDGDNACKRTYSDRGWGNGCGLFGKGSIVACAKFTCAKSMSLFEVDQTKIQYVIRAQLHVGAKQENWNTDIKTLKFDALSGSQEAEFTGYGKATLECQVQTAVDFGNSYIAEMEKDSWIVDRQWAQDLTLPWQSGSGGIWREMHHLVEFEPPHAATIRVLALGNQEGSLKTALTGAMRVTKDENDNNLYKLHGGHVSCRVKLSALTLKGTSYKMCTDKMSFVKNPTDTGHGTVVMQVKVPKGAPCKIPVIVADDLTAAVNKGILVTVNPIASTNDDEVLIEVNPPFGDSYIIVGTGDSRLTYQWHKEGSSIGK

YFV China病毒 (E蛋白, 病毒颗粒上), sequence (Q1X881 286-683, tags left off): as above

B1: 人源单克隆抗体YD73 (antibody, V domains shown)
VH: QVQLVQSGAEVKKPGASVKVSCKASGYTFIAYGISWVRQAPGQGLEWMGWISAHNGNTNYAQKFQGRVTVTTDTTTRTAFMELRNLRSDDTAVYYCARAPWEYNYRSSGYYDSPYWGQGTLVTVSS
VL: EIVLTQSPGTLSLSPGERATLSCRASQSVVSTYLAWYQQKPGQAPRLLIYDTSTRATGIPDRFSGSGSGTDFTLTISRLEPEDFAVYYCQHYDSSPPWTFGQGTKVEIKR
中和试验 IC50 (Vero细胞感染, FACS检测阳性细胞比例) (YFV China病毒 (E蛋白, 病毒颗粒上)): 3.7 ng/mL | Kd [1]: 588 pM
